# Where two headings read alike, the source gives them in different places. Positions of bridges follow the written chain, without caps; N, C: chain ends. Residues, ends and D or L forms follow the SMILES beside them. *: point of attachment. X1 = CC(CCC(C)C(=O)*)C(=O)OCC(=O)[C@@]1(O)[C@H](C)C[C@H]2[C@@H]3CCC4=CC(=O)C=C[C@]4(C)[C@@]3(F)[C@@H](O)C[C@@]21C
# Experiments:
# in vivo = experiment: in vivo
# Description: Dexamethasone alone has low water solubility. […] A secondary objective was to measure free Dex levels in knee joints.
# All samples were collected at euthanasia. Free Dex was extracted from plasma samples and quantified by LC/MS. […] To measure the total Dex concentration (free Dex released in vivo+Dex associated with intact peptide-drug conjugate) in plasma of rats treated with Peptide(SEQ ID NO: 105)-DMA-Dex, a separate plasma sample was subjected to forced hydrolysis followed by extraction of free Dex. Dexamethasone extraction was achieved by acetonitrile precipitation from plasma samples. The forced hydrolysis protocol involved addition of 10 U porcine esterase to the plasma and incubation for 22 h at 37° C. Total white blood cell counts, absolute lymphocyte counts, and thymus and spleen weights were measured to assess systemic markers of Dex exposure over the time-course.
# In order to quantify the concentration of free Dex in knee joints, knee joints were harvested, the joint capsule was opened, and the knee joints were then shaken in ethyl acetate for 12 h at 4° C. The extract was centrifuged and the supernatant was dried under nitrogen in a 96 well plate. The samples were then reconstituted and analyzed by LC/MS using the same protocol developed for quantifying free Dex in plasma.
# An indirect estimate of intact peptide-drug conjugate concentration at each time-point can be made by subtracting the free Dex concentration (from direct extraction) from the total Dex concentration (from forced hydrolysis). […] Systemic exposure to Dex was assessed by multiple parameters: total white blood cell (WBC) count; absolute lymphocyte count; thymus weight; and spleen weight (FIG. 15).
# [1] = Hydrolysis assay of peptide-drug conjugates in rat plasma (free drug by LC/MS); type: in vitro ADME; conditions: 37° C.
# CIA rats = type: in vivo
# Description: Ankle diameter measurements were recorded daily starting on induction day 9 and continuing for the duration of the study. […] Each treatment was administered on the day of enrollment (study day 0) and repeated daily for 7 days (study day 6). Rats were euthanized 3 h after the final dose and blood and organs were collected for testing.
# [2] = any time-point to 24 h, single IV dose 0.2 mg/kg
# [3] = 0.05 mg/kg daily for 7 days, study day 6
structure (smiles),measurement,setting,value
"CC[C@H](C)[C@@H]1NC(=O)[C@@H]2CSSC[C@H](NC(=O)[C@H](CCCNC(=N)N)NC(=O)[C@@H](NC(=O)[C@H](CC(N)=O)NC(=O)[C@@H](NC(=O)[C@@H]3CCCN3C(=O)[C@@H](NC(=O)CNC(=O)[C@H](CO)NC(=O)CNC(=O)C(C)CCC(C)C(=O)OCC(=O)[C@@]3(O)[C@H](C)C[C@H]4[C@@H]5CCC6=CC(=O)C=C[C@]6(C)[C@@]5(F)[C@@H](O)C[C@@]43C)C(C)C)[C@@H](C)CC)C(C)C)C(=O)N[C@@H](CCCNC(=N)N)C(=O)NCC(=O)N[C@@H](CO)C(=O)N[C@@H](CCCNC(=N)N)C(=O)N[C@@H](CC(=O)O)C(=O)N[C@H]3CSSC[C@H](NC(=O)[C@H](CCCNC(=N)N)NC(=O)[C@H](CO)NC(=O)[C@H](CC(N)=O)NC1=O)C(=O)N[C@@H](Cc1c[nH]cn1)C(=O)N[C@H](C(=O)N[C@H](C(=O)N1CCC[C@H]1C(=O)O)[C@@H](C)O)CSSC[C@H](NC(=O)[C@@H]1CCCN1C(=O)[C@H](CC(=O)O)NC(=O)[C@H](CC(C)C)NC3=O)C(=O)N[C@@H](CCCNC(=N)N)C(=O)N[C@@H](CCCNC(=N)N)C(=O)N[C@@H](C)C(=O)NCC(=O)N[C@@H](CCSC)C(=O)N[C@@H](CCCNC(=N)N)C(=O)N[C@@H](Cc1ccccc1)C(=O)NCC(=O)N[C@@H](CCCNC(=N)N)C(=O)N2 (stereo partly drawn) [Compound 27, peptide(SEQ ID NO: 105)-[dimethyladipic acid]-Dex] (X1-GSGVPINVRCRGSRDCLDPCRRAGMRFGRCINSRCHCTP-OH; disulfide 10-30, 16-35, 20-37 (inferred); C-terminus assumed)",WBC and lymphocyte cell counts as compared to DexSP,in vivo; 2 h after single IV dose 0.2 mg/kg,higher
same,lymphocyte counts as compared to DexSP,in vivo; 12 h after single IV dose 0.2 mg/kg,lower
same,"Thymus weight, difference between DexSP and conjugate",in vivo; [2],not significantly different
same,"spleen weight, difference between DexSP and conjugate",in vivo; [2],not significantly different
same,half-life,"in vivo; female, Lewis, rat, in vivo, iv, 0.2 mg/kg",~1.5 h
same,detectability of intact peptide-drug conjugate in plasma,"in vivo; plasma, total Dex minus free Dex, single IV dose 0.2 mg/kg",not detectable after 6 h
same,half-life at 0.25 mg/mL,"[1]; Rat Plasma, release of free Dex, time points to 32 hr, read-out: Half-life (hours) as measured in the hydrolysis experiments (converted)",9.9 h
same,half-life at 0.25 mg/mL,"[1]; in rat plasma, free Dex, read-out: Hydrolysis half-life (converted)",9.9 h
same,plasma lymphocyte counts as compared to DexSP,CIA rats; 0.05 mg/kg,significantly higher
same,spleen weight as compared to DexSP,CIA rats; 0.05 mg/kg,significantly higher
same,plasma lymphocyte counts as compared to vehicle,CIA rats; [3],significantly reduced
same,spleen weight as compared to vehicle,CIA rats; [3],significantly reduced
same,thymus weight as compared to vehicle,CIA rats; [3],significantly reduced
same,ankle inflammation,CIA rats; highest dose of 0.05 mg/kg daily for 7 days,effective at reducing ankle inflammation
same,ankle inflammation,"CIA rats; lower doses (0.001, 0.005, 0.01 mg/kg) daily for 7 days",indistinguishable from vehicle
